Laboratory results taken from patent US8227212B2, “Cell that expresses a sulfatase and a formylglycine generating enzyme” (Shire Human Genetic Therapies, Inc., priority 2003, dated 2012).

Substrate: CSCC[C@H](NC(C)=O)C(=O)N[C@H](C(=O)N[C@@H](CC(=O)O)C(=O)N[C@@H](Cc1ccccc1)C(=O)N[C@@H](Cc1ccc(O)cc1)C(=O)N[C@H](C(=O)N1CCC[C@H]1C(=O)N[C@H](C(=O)N[C@@H](CO)C(=O)N[C@@H](CC(C)C)C(=O)N[C@@H](CS)C(=O)N[C@H](C(=O)N1CCC[C@H]1C(=O)N[C@@H](CO)C(=O)N[C@@H](CCCNC(=N)N)C(=O)N[C@@H](C)C(=O)N[C@@H](C)C(=O)N[C@@H](CC(C)C)C(=O)N[C@@H](CC(C)C)C(=O)N[C@H](C(=O)NCC(=O)N[C@@H](CCCNC(=N)N)C(=O)N[C@@H](CO)C(N)=O)[C@@H](C)O)[C@@H](C)O)C(C)C)C(C)C)[C@@H](C)O
Assay: In vitro assay for FGE with peptide P23 as substrate (MALDI-TOF)
Assay type: biochemical, bovine
Details: other: standard conditions; pH 9.0; 37.0 °C
Procedure: For monitoring the activity of FGE, the N-acetylated and C-amidated 23mer peptide P23 ([…]) (SEQ ID NO:33) was used as substrate. The conversion of the Cysteine residue in position 11 to FGly was monitored by MALDI-TOF mass spectrometry. A 6 μM stock solution of P23 in 30% acetonitrile and 0.1% trifluoroacetic acid (TFA) was prepared. Under standard conditions 6 pmol of P23 were incubated at 37° C. with up to 10 μl enzyme in a final volume of 30 μl 50 mM Tris/HCl, pH 9.0, containing 67 mM NaCl, 15 μM CaCl2, 2 mM DTT, and 0.33 mg/ml bovine serum albumin. To stop the enzyme reaction 1.5 μl 10% TFA were added. […] Activity (pmol product/h) was calculated on the basis of the peak height of the product divided by the sum of the peak heights of P23 and the product.
We had developed an assay for determining FGE activity in microsome extracts using in vitro synthesized [^35S] […] The quantitation of the product included tryptic digestion, separation of the peptides by RP-HPLC and identification and quantitation of the [^35S]-labeled FGly containing tryptic peptide by a combination of chemical derivatization to hydrazones, RP-HPLC separation and liquid scintillation counting (Fey et al., J. Biol. Chem., 2001, 276:47021-47028). […] The cysteine and the FGly containing forms of P23 could be identified and quantified by matrix-assisted laser desorption/ionisation time of flight (MALDI-TOF) mass spectrometry. […]

B1: FGE (Bos taurus) (protein)
chain: GEEAGPEAGAPSLVGSCGCGNPQRPGAQGSSAAAHRYSREANAPGSVPGGRPSPPTKMVPIPAGVFTMGTDDPQIKQDGEAPARRVAIDAFYMDAYEVSNAEFEKFVNSTGYLTEAEKFGDSFVFEGMLSEQVKSDIQQAVAAAPWWLPVKGANWRHPEGPDSTVLHRPDHPVLHVSWNDAVAYCTWAGKRLPTEAEWEYSCRGGLQNRLFPWGNKLQPKGQHYANIWQGEFPVTNTGEDGFRGTAPVDAFPPNGYGLYNIVGNAWEWTSDWWTVHHSAEETINPKGPPSGKDRVKKGGSYMCHKSYCYRYRCAARSQNTPDSSASNLGFRCAADHLPTTG
notes: the soluble fraction (reticuloplasm) of bovine testis microsomes served as the starting material; from tissue; host or cells: bovine testis rough microsomes, reticuloplasm
Q: With B1 as the protein, how does the Km read?
A: Its Km is 0.013 µM.
